This is an account of results in paper PMC9348671, “Structural elucidation of substrate-bound aminoglycoside acetyltransferase (3)-IIIa” (PLoS ONE, 2022).

The data set deals with the molecule itself. Kind of data set: SEC; HiLoad Superdex 200 26/60 in 20 mM Tris pH 7.5, 150 mM NaCl; tag removed. For orientation: In gel filtration, larger molecules generally elute earlier.

B1: aminoglycoside acetyltransferase (3)-IIIa (enzyme)
chain: MTDLNIPHTHAHLVDAFQALGIRAGQALMLHASVKAVGAVMGGPNVILQALMDALTPDGTLMMYAGWQDIPDFIDSLPDALKAVYLEQHPPFDPATARAVRENSVLAEFLRTWPCVHRSANPEASMVAVGRQAALLTANHALDYGYGVESPLAKLVAIEGYVLMLGAPLDTITLLHHAEYLAKMRHKNVVRYPCPILRDGRKVWVTVEDYDTGDPHDDYSFEQIARDYVAQGGGTRGKVGDADAYLFAAQDLTRFAVQWLESRFGDSASYG
notes: AAC(3)-IIIa from Pseudomonas aeruginosa, GenBank CAA39184.1; gene synthesized with codons optimized for E. coli, in pET15b between NdeI and BamHI; Hexahistidine tag removed by thrombin; residues of the thrombin site and vector may be left at the N-terminus; Crystals held CoASH and an aminoglycoside (gentamicin, sisomicin or neomycin); also called AAC(3)-IIIa; iso^A; source: LOBSTR E. coli, …
Usually stoichiometry N stands for the number of molecules, sites or subunits per partner or assembly. On to B1, for which the “stoichiometry N” value is 2.
